Like-named read-outs stand apart in the source and are kept apart here.
Legend:
[1] = molecular target: T1, IL-8 (Homo sapiens, UniProt P10145); assay: competitive binding ELISA (epitope comparison of biotinylated and unlabeled mAbs); parameters: is intended to mean (ser-IL-8)72 unless otherwise specified; ubiquitin (production fusion); made in house; conditions: biotinylated mAb to unlabeled mAb 1:100
Procedure: To assess whether these monoclonal antibodies bound to the same epitopes, a competitive binding ELISA was performed. […] Thus, mAb 4.1.3 and mAb 5.2.3 bind to a different epitope(s) than the epitope recognized by monoclonal antibodies 12.3.9, 4.8 and 5.12.14.

[2] = molecular target: T2, IL-8 binding to human neutrophils (Homo sapiens, UniProt P10145); assay: receptor binding assay: 125I-IL-8 bound to human neutrophils in presence of mAbs; conditions: 1:25 molar ratio of IL-8 to mAb
T2 construct: is intended to mean (ser-IL-8)72 unless otherwise specified; ubiquitin (production fusion); made in house
Procedure: Neutrophils were prepared by using Mono-Poly Resolving Medium (M-PRM) (Flow Lab. Inc., McLean, Va.). Briefly fresh, heparinized human blood was loaded onto M-PRM at a ratio of blood to medium, 3.5:3.0, and centrifuged at 300×g for 30 min at room temperature. Neutrophils enriched at the middle layer were collected and washed once in PBS. […] The receptor binding assay was done as follows. […] The mixture was then incubated with 100 μl of neutrophils (10^7 cells/ml) for 15 min at 37° C. […] The supernatant was removed by aspiration and the radioactivity associated with the pellet was counted in a gamma counter.

[3] = test system: human IL-8 mediated elastase release from human neutrophils; assay: IL-8 mediated release of elastase by neutrophils (mAb); type: cell-based; conditions: 1:1 ratio of IL-8 to mAb
Procedure: One of the antibodies, mAb 5.12.14, was further studied to determine whether it could block the IL-8 mediated release of elastase by neutrophils. Briefly, human neutrophils were resuspended in Hanks balanced salt solution (Gibco, Grand Island, N.Y.) containing 1.0% BSA, Fraction V (Sigma, St. Louis, Mo.), 2 mg/ml alpha-D-glucose (Sigma), 4.2 mM sodium bicarbonate (Sigma) and 0.01 M HEPES, pH 7.1 (JRH Bioscience, Lenexa, Kans.). A stock of cytochalasin B (Sigma) was prepared (5 mg/ml in dimethylsulfoxide (Sigma) and stored at 2-8° C. Cytochalasin B was added to the neutrophil preparation to produce a final concentration of 5 μg/ml, and incubated for 15 min at 37° C. Human IL-8 was incubated with mAb 5.12.14 (20 μl), or a negative control antibody, in 1 ml polypropylene tubes (DBM Scientific, San Fernando, Calif.) for 30 min at 37° C. The final assay concentrations of IL-8 were 50 and 500 nM. The monoclonal antibodies were diluted to produce the following ratios (IL-8:Mab): 1:50, 1:10, 1:2, 1:1, and 1:0.25. Cytochalasin B-treated neutrophils were added (100 μl/tube) and incubated for 2 hours at 25° C. The tubes were centrifuged (210×g, 2-8° C.) for 10 min, and supernatants were transferred to 96 well tissue culture plates (30 μl/well). […] Absorbance was measured at 405 nm (SLT 340 ATTC plate reader, SLT Lab Instruments, Austria).

[4] = test system: IL-8 induced human neutrophil chemotaxis; assay: neutrophil chemotaxis induced by IL-8, Boyden chamber method; type: cell-based; conditions: 1:10 ratio of IL-8 to mAb
Procedure: The ability of the anti-IL-8 antibodies to block neutrophil chemotaxis induced by IL-8 was tested as follows. Neutrophil chemotaxis induced by IL-8 was determined using a Boyden chamber method (Larsen, et al. Science 243:1464 (1989)). One hundred μl of human neutrophils (10^6 cells/ml) resuspended in RPMI containing 0.1% BSA were placed in the upper chamber and 29 μl of the IL-8 (20 nM) with or without monoclonal antibodies were placed in the lower chamber. Cells were incubated for 1 hr at 37° C. Neutrophils migrated into the lower chamber were stained with Wright's Giemsa stain and counted under the microscope (100×magnification). Approximately 10 different fields per experimental group were examined. Neutralizing monoclonal antibodies 5.12.14 and 4.1.3 blocked almost 70% of the neutrophil chemotactic activity of IL-8 at 1:10 ratio of IL-8 to mAb.

[5] = isoelectric focusing (IEF); type: physicochemical; conditions: IEF pH 3-9
Procedure: The isoelectric focusing (IEF) pattern of each mAb was determined by applying purified antibodies on an IEF polyacrylamide gel (pH 3-9, Pharmacia) using the Fast gel system (Pharmacia, Piscataway, N.J.). The IEF gel was pretreated with pharmalyte containing 1% Triton X100 (Sigma, St. Louis, Mo.) for 10 min before loading the samples. The IEF pattern was visualized by silver staining according to the instructions from the manufacturer. All of the monoclonal antibodies had different IEF patterns, confirming that they originated from different clones.

[6] = molecular target: T1, IL-8; assay: radioimmune precipitation test (RIP), capture of soluble 125I-IL-8; type: binding; parameters: is intended to mean (ser-IL-8)72 unless otherwise specified; ubiquitin (production fusion); made in house
Procedure: One hundred microliters of a predetermined concentration of goat anti-mouse Ig antisera (Pel-Freez, Rogers, Ark.) were added and the mixture was incubated at room temperature for 1 hr. Immune complexes were precipitated by the addition of 0.5 ml of 6% polyethylene glycol (M.W. 8000) kept at 4° C. After centrifugation at 2,000×g for 20 min at 4° C., the supernatant was removed by aspiration and the radioactivity remaining in the pellet was counted in a gamma counter. Percent specific binding was calculated as (precipitated cpm-background cpm)/(total cpm-background cpm).

[7] = molecular target: T3, recombinant human IL-8, (ser-IL-8)72 (human, UniProt P10145); assay: inhibition of 125I-IL-8 binding to human neutrophils
[8] = molecular target: T3, recombinant human IL-8, (ser-IL-8)72; assay: as above; remark: listed apart in the source
[9] = molecular target: T3, recombinant human IL-8, (ser-IL-8)72; assay: 125I-IL-8 neutrophil competition; reference by Table 4: chimeric F(ab)
[10] = molecular target: T4, rabbit IL-8 (rabbit, UniProt P19874); assay: cell-based or functional assay
T4 sequence: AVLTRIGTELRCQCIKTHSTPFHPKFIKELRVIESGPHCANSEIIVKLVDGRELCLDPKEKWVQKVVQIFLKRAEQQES

[11] = molecular target: human monomeric IL-8 (human)
[12] = molecular target: T3, recombinant human IL-8, (ser-IL-8)72
[13] = molecular target: T3, recombinant human IL-8, (ser-IL-8)72; remark: listed apart in the source
[14] = molecular target: T3, recombinant human IL-8, (ser-IL-8)72; assay: KinExA, equilibrium, human IL-8
Procedure: The beads were resuspended in assay buffer (0.1% bovine serum albumin in PBS) to a final volume of 30 ml.
The equilibrium constant (Kd) was calculated using the software provided by Sapidyne Instruments Inc.

[15] = test system: neutrophils in bronchoalveolar lavage (BAL) fluid; assay: neutrophils in bronchoalveolar lavage (BAL) fluid of animals infected with bacteria; type: in vivo; conditions: infected with Streptococcus pneumoniae, Escherichia coli, or Pseudomonas aeruginosa; versus isotype control mouse IgG
Text: FIG. 12 is a graph depicting the effect of anti-IL-8 monoclonal antibody treatment on the number of neutrophils in bronchoalveolar lavage (BAL) fluid in animals infected with Streptococcus pneumoniae, Escherichia coli, or Pseudomonas aeruginosa.

[16] = molecular target: IL-8 binding to IL-8 receptors on human neutrophils (Homo sapiens, UniProt P10145); assay: inhibition of 125I-IL-8 binding to human neutrophils (competition binding assay); conditions: read-out: average IC50, inhibition of 125I-IL-8 binding to human neutrophils; characterization of 6G4V11N35A Fab and F(ab')2 (FIGS. 33, 38)

B1: 5.12.14: murine anti-human IL-8 monoclonal antibody, IgG2a, hybridoma ATCC HB 11553 (antibody, V domains shown)
VL: KASQNVGTNVAWYQQKPGQSPKALIYSSSYRYSGVPDRFTGSGSGTDFTLTISHVQSEDLADYFCQQYNIYPLTFGPGTKLELKRADAAPPTVSIFPPFE
VH: ASGFIFSSYGMSWVRQTPGKSLELVATINNNGDSTYYPDSVKGRFTISRDNAKNTLYLQMSSLKSEDTAMFYCARALISSATWFGYWGQGTLVTVSAAKTTAPSVYP
inhibition of binding of biotinylated mAb (epitope) [1]: significantly inhibited by its homologous mAb but not by mAb 4.1.3 | inhibition of binding of IL-8 to human neutrophils [2]: greater than 85% | block of IL-8 mediated release of elastase from neutrophils [3]: able to effectively block the release of elastase from neutrophils | block of neutrophil chemotactic activity of IL-8 [4]: ~70% | pI [5]: 6.2-7.4 | % Specific Binding to IL-8 ([6]; 125I-IL-8, RIP): 98% | ability to capture soluble 125I-IL-8 ([6]; RIP): captured ^125 I-IL-8 very efficiently

B2: humanized 6G425 F(ab)-1 (Fab, V domains shown)
VH: EVQLVESGGGLVQPGGSLRLSCAASGYSFSSHYMHWVRQAPGKGLEWVGYIDPSNGETTYNQKFKGRFTISRDNSKNTLYLQMNSLRAEDTAVYYCAARGDYRYNGDWFFDVWGQGT
VL: DIQMTQSPSSLSASVGDRVTITCRSSQSLVHGIGNTYLHWYQQKPGKAPKLLIYYKVSNRFSGVPSRFSGSGSGTDFTLTISSLQPEDFATYYCSQSTHVPLTFGQGTKVEIKR
IC50 [7]: 40 nM | IC50 [8]: 63 nM | fold reduction in binding affinity [9]: 5.5 fold

B3: 6G4V11N35A Fab (Fab, V domains shown)
VH: EVQLVQSGGGLVQPGGSLRLSCAASGYSFSSHYMHWVRQAPGKGLEWVGYIDPSNGETTYNQKFKGRFTLSRDNSKNTAYLQMNSLRAEDTAVYYCARGDYRYNGDWFFDVWGQGTLVTVSS
VL: DIQMTQSPSSLSASVGDRVTITCRSSQSLVHGIGATYLHWYQQKPGKAPKLLIYKVSNRFSGVPSRFSGSGSGTDFTLTISSLQPEDFATYYCSQSTHVPLTFGQGTKVEIKR
IC50, IL-8 mediated neutrophil chemotaxis [10]: 5 nM | IC50, IL-8 mediated neutrophil chemotaxis [11]: 1 nM | IC50, IL-8 mediated PMN chemotaxis [12]: 0.8 nM | IC50, human IL-8 mediated neutrophil chemotaxis [13]: 2.7 nM | Kd [14]: ~0.114 nM

B4: 6G4.2.5: murine anti-rabbit IL-8 monoclonal antibody, IgG2a, hybridoma ATCC HB 11722 (antibody, V domains shown)
VL: DIVMTQTPLSLPVSLGDQASISCRSSQSLVHGIGNTYLHWYLQKPGQSPKLLIYYKVSNRFSGVPDRFSDSGSGTDFTLRISRVEAEDLGLYFCSQSTHVPLTFGAGTKLELKR
VH: EIQLQQSGPELMKPGASVKISCKASGYSFSSHYMHWVKQSHGKSLEWIGYIDPSNGETTYNQKFKGKATLTVDTSSSTANVHLSSLTSDDSAVYFCAARGDYRYNGDWFFDVWGAGT
number of neutrophils in BAL fluid [15]: significantly reduced the number of neutrophils present in the BAL fluid | IC50 [16]: 5 nM
